Measurements published in patent US20200283478A1 (Genentech, published 2020).
Bridge positions count the residues as written; N and C are the ends. Square brackets hold non-standard residues; d marks the D form. Ends that are not written are not given here. * marks the point of attachment. 5FAM = O=C1OC2(c3ccc(O)cc3Oc3cc(O)ccc32)c2ccc(C(=O)*)cc21; hArg = N=C(N)NCCCC[C@H](N)C(=O)O; Pentanoyl = CCCCC(=O)*

B1: Compound 112 (peptide)
peptide: Pentanoyl-WNLVRIGLTR-NH2
SMILES: CCCCC(=O)N[C@@H](Cc1c[nH]c2ccccc12)C(=O)N[C@@H](CC(N)=O)C(=O)N[C@@H](CC(C)C)C(=O)N[C@H](C(=O)N[C@@H](CCCNC(=N)N)C(=O)N[C@H](C(=O)NCC(=O)N[C@@H](CC(C)C)C(=O)N[C@H](C(=O)N[C@@H](CCCNC(=N)N)C(N)=O)[C@@H](C)O)[C@@H](C)CC)C(C)C
B2: Compound 113 (peptide)
peptide: Pentanoyl-WNLVRIGTTR-NH2
SMILES: CCCCC(=O)N[C@@H](Cc1c[nH]c2ccccc12)C(=O)N[C@@H](CC(N)=O)C(=O)N[C@@H](CC(C)C)C(=O)N[C@H](C(=O)N[C@@H](CCCNC(=N)N)C(=O)N[C@H](C(=O)NCC(=O)N[C@H](C(=O)N[C@H](C(=O)N[C@@H](CCCNC(=N)N)C(N)=O)[C@@H](C)O)[C@@H](C)O)[C@@H](C)CC)C(C)C
B3: Compound 114 (peptide)
peptide: Pentanoyl-WNLVRIGTLR-NH2
SMILES: CCCCC(=O)N[C@@H](Cc1c[nH]c2ccccc12)C(=O)N[C@@H](CC(N)=O)C(=O)N[C@@H](CC(C)C)C(=O)N[C@H](C(=O)N[C@@H](CCCNC(=N)N)C(=O)N[C@H](C(=O)NCC(=O)N[C@H](C(=O)N[C@@H](CC(C)C)C(=O)N[C@@H](CCCNC(=N)N)C(N)=O)[C@@H](C)O)[C@@H](C)CC)C(C)C
B4: Compound 111 (peptide)
peptide: Pentanoyl-WNLVRIGLLR-NH2
SMILES: CCCCC(=O)N[C@@H](Cc1c[nH]c2ccccc12)C(=O)N[C@@H](CC(N)=O)C(=O)N[C@@H](CC(C)C)C(=O)N[C@H](C(=O)N[C@@H](CCCNC(=N)N)C(=O)N[C@H](C(=O)NCC(=O)N[C@@H](CC(C)C)C(=O)N[C@@H](CC(C)C)C(=O)N[C@@H](CCCNC(=N)N)C(N)=O)[C@@H](C)CC)C(C)C
B5: Compound 118 (peptide)
peptide: Pentanoyl-WNLV[hArg]IGLTR-NH2
SMILES: CCCCC(=O)N[C@@H](Cc1c[nH]c2ccccc12)C(=O)N[C@@H](CC(N)=O)C(=O)N[C@@H](CC(C)C)C(=O)N[C@H](C(=O)N[C@@H](CCCCNC(=N)N)C(=O)N[C@H](C(=O)NCC(=O)N[C@@H](CC(C)C)C(=O)N[C@H](C(=O)N[C@@H](CCCNC(=N)N)C(N)=O)[C@@H](C)O)[C@@H](C)CC)C(C)C
notes: also called n-BuC(O)-WNLV(homoR)IGLTR-NH2

The binders below were run against T1, PCSK9 (proprotein convertase subtilisin/kexin type 9), His-tagged, full-length (human, UniProt Q8NBP7 31-692) (assay: SPR, Method 3 (SensiQ Pioneer FE, target amine-coupled, gradient injection)).
T1 construct: Captured by the His tag (SPR Methods 1 and 2), amine-coupled (Method 3), or His-tagged in TR-FRET; also called His-PCSK9
T1 sequence (Q8NBP7 31-692 limits assumed): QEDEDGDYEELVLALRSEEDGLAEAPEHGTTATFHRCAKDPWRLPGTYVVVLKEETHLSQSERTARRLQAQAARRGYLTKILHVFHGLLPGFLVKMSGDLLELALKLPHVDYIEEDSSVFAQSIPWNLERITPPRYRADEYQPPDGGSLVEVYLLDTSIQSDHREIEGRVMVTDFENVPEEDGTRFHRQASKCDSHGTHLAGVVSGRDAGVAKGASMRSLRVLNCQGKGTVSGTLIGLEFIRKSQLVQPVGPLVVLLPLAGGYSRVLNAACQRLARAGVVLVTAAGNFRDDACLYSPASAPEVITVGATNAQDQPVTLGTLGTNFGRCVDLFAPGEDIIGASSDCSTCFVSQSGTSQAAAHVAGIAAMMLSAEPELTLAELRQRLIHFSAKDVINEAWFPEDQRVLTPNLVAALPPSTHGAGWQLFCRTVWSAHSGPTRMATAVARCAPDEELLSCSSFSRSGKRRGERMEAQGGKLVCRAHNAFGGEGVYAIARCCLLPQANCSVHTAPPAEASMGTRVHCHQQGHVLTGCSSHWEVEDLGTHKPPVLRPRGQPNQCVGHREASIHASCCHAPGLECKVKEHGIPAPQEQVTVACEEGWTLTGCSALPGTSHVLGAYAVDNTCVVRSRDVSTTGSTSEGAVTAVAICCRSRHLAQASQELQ

Binder | Kd [µM]
Ac-CFIPWNLQRIGLLC-NH2 (disulfide 1-14 (inferred), Two Cys, disulfide-cyclized) [Compound 31] | 5.83
Ac-CRLPWNLQRIGLPC-NH2 (disulfide 1-14 (inferred), Two Cys, disulfide-cyclized) [Compound 32] | 1.3
Ac-CRLPWNLARIGLPC-NH2 (disulfide 1-14 (inferred), Two Cys, disulfide-cyclized) [Compound 73] | 11
5FAM-SGSGCFIPWNLQRIGLLC-NH2 (disulfide 5-18 (inferred), Two Cys, disulfide-cyclized) [Compound 33] | 6.01

The binders below were run against T2, PCSK9Δhelix (human, UniProt Q8NBP7 31-152; Q8NBP7 168-692) in the same assay as above.
T2 construct: Made by TEV cleavage of human PCSK9 M1-Q692 with an engineered TEV site; The new N-terminus of the catalytic domain is S-A168; also called His-PCSK9Δhelix; PCSK9 lacking the P' helix
T2 sequence (Q8NBP7 31-152, stated change not applied, chain 1 of 2): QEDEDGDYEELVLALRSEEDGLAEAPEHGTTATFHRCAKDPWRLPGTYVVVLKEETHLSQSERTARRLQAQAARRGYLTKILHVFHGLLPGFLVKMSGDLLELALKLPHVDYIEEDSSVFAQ
T2 sequence (Q8NBP7 other isoform, or with tags, fused parts or gaps mutant, chain 2 of 2): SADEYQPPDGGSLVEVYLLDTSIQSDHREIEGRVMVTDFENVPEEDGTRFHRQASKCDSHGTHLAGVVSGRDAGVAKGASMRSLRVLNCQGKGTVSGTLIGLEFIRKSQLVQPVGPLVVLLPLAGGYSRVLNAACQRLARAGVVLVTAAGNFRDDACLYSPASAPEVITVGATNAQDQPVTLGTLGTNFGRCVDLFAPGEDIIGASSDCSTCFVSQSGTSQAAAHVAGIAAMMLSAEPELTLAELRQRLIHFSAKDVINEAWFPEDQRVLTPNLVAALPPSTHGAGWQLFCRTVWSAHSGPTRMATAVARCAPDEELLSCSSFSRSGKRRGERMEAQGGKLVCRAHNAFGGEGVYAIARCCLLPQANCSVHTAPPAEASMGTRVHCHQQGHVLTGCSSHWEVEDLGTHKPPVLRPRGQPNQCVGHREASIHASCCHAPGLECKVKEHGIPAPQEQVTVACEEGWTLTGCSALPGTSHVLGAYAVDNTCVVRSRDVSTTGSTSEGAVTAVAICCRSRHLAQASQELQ

Binder | Kd [µM]
Ac-CFIPWNLQRIGLLC-NH2 (disulfide 1-14 (inferred), Two Cys, disulfide-cyclized) [Compound 31] | 3.01
Ac-CRLPWNLQRIGLPC-NH2 (disulfide 1-14 (inferred), Two Cys, disulfide-cyclized) [Compound 32] | 0.21
Ac-CRLPWNLARIGLPC-NH2 (disulfide 1-14 (inferred), Two Cys, disulfide-cyclized) [Compound 73] | 0.167
5FAM-SGSGCFIPWNLQRIGLLC-NH2 (disulfide 5-18 (inferred), Two Cys, disulfide-cyclized) [Compound 33] | 10

The binders below were run against T1, PCSK9 (proprotein convertase …) (assay: TR-FRET competition; competitor EGF(A)-Fc binding to His-PCSK9).

Binder | IC50 [µM]
Ac-DLMPWNLVRIGLLR-NH2 [Compound 35] | > 50
Ac-DLMPANLVRIGLLR-NH2 [Compound 41] | > 50
Ac-DLMAWNLVRIGLLR-NH2 [Compound 42] | > 50
Ac-DLAPWNLVRIGLLR-NH2 [Compound 43] | > 50
Ac-DAMPWNLVRIGLLR-NH2 [Compound 44] | > 50
Ac-DLMPWNLVRIGLLA-NH2 [Compound 54] | > 50
Ac-DLMPWNLVRIGALR-NH2 [Compound 56] | > 50
Ac-DLMPWNLVRIALLR-NH2 [Compound 57] | > 50
Ac-DLMPWNLVRAGLLR-NH2 [Compound 58] | > 50
Ac-DLMPWNLVAIGLLR-NH2 [Compound 59] | > 50
Ac-DLMPWNLARIGLLR-NH2 [Compound 60] | > 50
Ac-DLMPWNAVRIGLLR-NH2 [Compound 61] | > 50
Ac-DLMPWALVRIGLLR-NH2 [Compound 62] | > 50
B1 | > 50
B2 | > 50
B3 | > 50
Ac-DLMPWNLVRIGLL-NH2 [Compound 46] | > 50
Ac-DLMPWNLVRIGL-NH2 [Compound 47] | > 50
Ac-DLMPWNLVRIG-NH2 [Compound 48] | > 50
Ac-DLMPWNLVRI-NH2 [Compound 49] | > 50
Ac-PWNLVRIGL-NH2 [Compound 119] | > 50
Ac-WNLVRIGL-NH2 [Compound 120] | > 50
B4 | > 50
B5 | > 50

What follows are binders tested against T3, PCSK9Δhelix (human, Chemically biotinylated in the phage ELISAs; the site is not given.) (assay: phage spot ELISA).
T3 construct: construct M1-Q692 with engineered TEV site, cleaved by TEV; also called His-PCSK9Δhelix; open groove PCSK9Δhelix
T3 sequence (prodomain, as listed by the source mutant limits assumed, chain 1 of 2): as the sequence (Q8NBP7 31-152, stated change not applied, chain 1 of 2) above
T3 sequence (chain, as listed by the source mutant limits assumed, chain 2 of 2): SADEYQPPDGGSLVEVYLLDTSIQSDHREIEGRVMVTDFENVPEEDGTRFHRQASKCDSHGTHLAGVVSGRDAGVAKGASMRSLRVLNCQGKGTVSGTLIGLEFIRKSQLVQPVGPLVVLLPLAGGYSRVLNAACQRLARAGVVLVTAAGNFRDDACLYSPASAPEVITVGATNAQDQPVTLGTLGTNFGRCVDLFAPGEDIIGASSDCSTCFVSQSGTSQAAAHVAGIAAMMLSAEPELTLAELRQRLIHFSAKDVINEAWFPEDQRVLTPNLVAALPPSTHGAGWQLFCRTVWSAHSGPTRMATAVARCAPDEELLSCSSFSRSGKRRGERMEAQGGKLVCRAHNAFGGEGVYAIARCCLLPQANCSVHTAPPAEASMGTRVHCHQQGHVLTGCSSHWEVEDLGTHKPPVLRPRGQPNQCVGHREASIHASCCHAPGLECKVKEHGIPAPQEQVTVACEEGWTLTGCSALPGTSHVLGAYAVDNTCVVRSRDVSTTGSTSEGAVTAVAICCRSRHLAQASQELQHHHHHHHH

Binder | ELISA | s/n
SGGSIPWNLERITPPR [SEQ ID NO 382] | 1.64 | 9.01

These binders were tested against T4, proprotein convertase subtilisin/kexin type 9 (PCSK9) (human, UniProt Q8NBP7 31-692) (assay: phage spot ELISA).
T4 construct: His-tagged full-length PCSK9 in TR-FRET and SPR, biotinylated in phage ELISA; secreted protein is autoprocessed (prodomain plus catalytic/CRD chain starting at S153); also called rec.PCSK9; His-PCSK9
T4 sequence (Q8NBP7 other isoform, or with tags, fused parts or gaps limits assumed): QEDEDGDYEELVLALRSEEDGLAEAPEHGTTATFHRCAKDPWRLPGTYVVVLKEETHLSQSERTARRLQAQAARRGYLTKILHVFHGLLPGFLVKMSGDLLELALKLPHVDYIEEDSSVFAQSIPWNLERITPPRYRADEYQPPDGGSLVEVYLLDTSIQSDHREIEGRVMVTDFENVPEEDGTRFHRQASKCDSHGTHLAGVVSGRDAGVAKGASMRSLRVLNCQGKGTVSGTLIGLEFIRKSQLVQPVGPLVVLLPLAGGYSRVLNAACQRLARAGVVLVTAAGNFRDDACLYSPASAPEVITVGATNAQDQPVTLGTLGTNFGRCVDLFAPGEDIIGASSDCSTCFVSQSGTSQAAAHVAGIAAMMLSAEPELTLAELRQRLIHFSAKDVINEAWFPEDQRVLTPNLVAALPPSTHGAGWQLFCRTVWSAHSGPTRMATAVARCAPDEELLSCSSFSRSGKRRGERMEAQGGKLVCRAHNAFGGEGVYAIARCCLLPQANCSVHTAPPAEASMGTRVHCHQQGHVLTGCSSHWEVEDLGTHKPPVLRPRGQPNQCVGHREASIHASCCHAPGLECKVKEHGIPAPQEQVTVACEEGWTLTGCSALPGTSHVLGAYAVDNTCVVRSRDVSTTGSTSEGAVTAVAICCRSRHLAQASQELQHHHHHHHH

Binder | ELISA | s/n
SGGSIPWNLERITPPR [SEQ ID NO 382] | 1.41 | 5.32

The binders below were run against T2, PCSK9Δhelix (assay: TR-FRET competition; competitor Ab20 binding to His-PCSK9Δhelix;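 further: readout is anti-His-APC on PCSK9 with anti-Fc-europium on the Fc-tagged ligand, compound incubated 30 min, normalized signal ratio fitted by four-parameter logistic regression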).

Binder | IC50 [µM]
Ac-DLMPWNLVRIGLLR-NH2 [Compound 35] | 4.8
Ac-DLMPANLVRIGLLR-NH2 [Compound 41] | 49.5
Ac-DLMAWNLVRIGLLR-NH2 [Compound 42] | 28.5
Ac-DLAPWNLVRIGLLR-NH2 [Compound 43] | 8.19
Ac-DAMPWNLVRIGLLR-NH2 [Compound 44] | 6.9
Ac-DLMPWNLVRIGLLA-NH2 [Compound 54] | 15.4
Ac-DLMPWNLVRIGALR-NH2 [Compound 56] | 17.1
Ac-DLMPWNLVRIALLR-NH2 [Compound 57] | > 49.5
Ac-DLMPWNLVRAGLLR-NH2 [Compound 58] | 49.5
Ac-DLMPWNLVAIGLLR-NH2 [Compound 59] | 49.5
Ac-DLMPWNLARIGLLR-NH2 [Compound 60] | 19.2
Ac-DLMPWNAVRIGLLR-NH2 [Compound 61] | 49.5
Ac-DLMPWALVRIGLLR-NH2 [Compound 62] | 49.5
B1 | 7.5
Ac-DLMPWNLVRIGLL-NH2 [Compound 46] | 14
Ac-DLMPWNLVRIGL-NH2 [Compound 47] | 12.6
Ac-DLMPWNLVRIG-NH2 [Compound 48] | 49.5
Ac-DLMPWNLVRI-NH2 [Compound 49] | 49.5
Ac-PWNLVRIGL-NH2 [Compound 119] | 49.5
Ac-WNLVRIGL-NH2 [Compound 120] | 49.5
B4 | 4.9
B5 | 1.4

Target: T3, PCSK9Δhelix
Assay: phage spot ELISA
Remark: another data set of the same source

Binder | ELISA | s/n ratio
SGCFIPWNLQRIGLLC (not fully specified (C-terminus, bridges); cysteine pairing not given here) [SEQ ID NO 383] | 3.07 | 8.48
SGGACPWNLERIGLSC [SEQ ID NO 384] | 1.94 | 12.3
SGRCLNHLISGNMNSC [SEQ ID NO 387] | 2.88 | 20.7
SGACVKPCIAGNIIR [SEQ ID NO 388] | 2.09 | 18.2
SGDLMPWNLVRIGLLR [SEQ ID NO 389] | 3.23 | 14.7
SGGSMPWNLERIFALH [SEQ ID NO 390] | 3.19 | 21.3
SGCSDLWNLARIYPMC [SEQ ID NO 391] | 2.21 | 15.1

Target: T4, proprotein convertase subtilisin/kexin …
Assay: phage spot ELISA
Remark: another data set of the same source

Binder | ELISA | s/n ratio
SGCFIPWNLQRIGLLC (not fully specified (C-terminus, bridges); cysteine pairing not given here) [SEQ ID NO 383] | 3 | 8.11
SGGACPWNLERIGLSC [SEQ ID NO 384] | 1.42 | 9.77
SGDFIPWNLVRIGLLR [SEQ ID NO 385] | 0.472 | 3.42
SGRCLNHLISGNMNSC [SEQ ID NO 387] | 2.62 | 17.5
SGACVKPCIAGNIIR [SEQ ID NO 388] | 1.25 | 9.44
SGDLMPWNLVRIGLLR [SEQ ID NO 389] | 3.16 | 16.5
SGGSMPWNLERIFALH [SEQ ID NO 390] | 2.74 | 15.8
SGCSDLWNLARIYPMC [SEQ ID NO 391] | 0.514 | 3.59
